According to US20240301067A1 (WUXI BIOLOGICS IRELAND, published 2024):

Tests used:
[1] = target: T1, Human PD-1 extracellular domain, mFc tag (human, UniProt Q15116 25-170); assay: ELISA competition on coated hPro1.ECD.mFc; competitor hPro1L2.ECD.His; experiment 1
T1 construct: extracellular domain; also called hPro1.ECD.mFc; hPD-1.ECD.mFc; not shown: mouse Fc tag at C-terminus
Description: (§1) Plates were pre-coated with 1 μg/mL, 100 μL per well of human PD-1 ECD (hPro1.ECD.mFc) at 4° C. overnight. After 1-hour blocking using 200 μL of 1×PBS/2% BSA, constant concentration of his tagged human PD-L2 ECD (hPro1L2.ECD.His) and various concentrations of testing antibodies (3-fold serially diluted from 66.7 nM to 0.003 nM) were pre-mixed and added to the plates. After 2-hour incubation at ambient temperature, the binding of the ligand to the immobilized protein was detected by HRP-labeled goat anti-His antibody. The color was developed by dispensing 100 μL of TMB substrate, and then stopped by 100 μL of 2N HCl. The absorbance was read at 450 nm and 540 nm using a microplate spectrophotometer.

[2] = target: T2, Mouse PD-1 (soluble analyte in SPR, Table 11) (mouse, UniProt Q02242 25-167, limits assumed); assay: SPR Biacore 8K; antibody captured on anti-human Fc chip, PD-1 injected; 1:1 fit
T2 sequence (looked up): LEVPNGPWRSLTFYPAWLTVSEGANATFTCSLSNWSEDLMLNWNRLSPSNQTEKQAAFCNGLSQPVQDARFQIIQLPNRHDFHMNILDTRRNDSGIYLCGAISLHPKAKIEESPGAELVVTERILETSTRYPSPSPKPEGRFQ
Description: (§2) Antibody binding affinity to human, mouse and cynomolgus PD-1 was detected using Biacore 8K. W3056-AP17R1-2H2-Z1-R1-14A1-FC (IgG4.SP) was captured on an anti-human Fc IgG antibody immobilized CM5 sensor chip (GE). Human, mouse and cynomolgus PD-1 at different concentrations were injected over the sensor chip at a flow rate of 30 uL/min for an association phase of 120 s, followed by 150 s dissociation. The chip was then regenerated by 10 mM Glycine pH 1.5 after each binding cycle.
(§3) The sensorgrams of blank surface and buffer channel were subtracted from the test sensorgrams. The experimental data was fitted by 1:1 model using Langmiur analysis. Molecular weight of 40, 45 and 40 kDa was used to calculate the molar concentration of analyte human, mouse and cynomolgus PD-1 respectively.

[3] = target: T3, Cynomolgus PD-1 (soluble analyte in SPR, Table 11) (cynomolgus, UniProt B0LAJ3 25-170); assay: as above
T3 construct: also called cyno PD-1
T3 sequence (B0LAJ3 entry or part of it limits assumed): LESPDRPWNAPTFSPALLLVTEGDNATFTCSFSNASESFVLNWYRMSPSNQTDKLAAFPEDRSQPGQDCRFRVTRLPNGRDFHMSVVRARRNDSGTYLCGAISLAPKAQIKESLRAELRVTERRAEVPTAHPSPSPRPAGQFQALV
Description: as §2, §3

[4] = target: Human PD-1 (soluble analyte in SPR, Table 11) (human, UniProt Q15116 25-167); assay: as above
Sequence of Human PD-1 (soluble analyte in SPR, Table 11) (Q15116 25-167 limits assumed): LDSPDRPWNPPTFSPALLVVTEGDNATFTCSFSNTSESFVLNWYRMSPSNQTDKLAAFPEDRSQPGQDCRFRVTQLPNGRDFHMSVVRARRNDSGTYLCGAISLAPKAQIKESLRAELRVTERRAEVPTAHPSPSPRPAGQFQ
Description: as §2, §3

[5] = target: T1, Human PD-1 extracellular domain, mFc tag; assay: ELISA competition on coated hPro1.ECD.mFc; competitor hPro1L2.ECD.His; experiment 2
Description: as §1

T1 sequence (Q15116 25-170): as the sequence (B0LAJ3 entry or part of it limits assumed) above, with E2D, A10P, L19V, A35T, R75Q, A144T counted along it

Binder | IC50 [1] | Kd [2] | koff [2] | kon [2] | Kd [3] | koff [3] | kon [3] | Kd [4] | koff [4] | kon [4] | IC50 [5]
W3056-AP17R1-2H2-FC(IgG4.SP) (Fc fusion, VHH fused to Fc of human IgG4 S228P; also called W3056 lead parental antibody (VHH-Fc(hIgG4) fusion); not shown: Fc of human IgG4 (hIgG4.S228P)) QVQLVESGGGLVQPGGSLRLSCAASDSIDSLVNMGWYRQAPGKQRELVALIANYITHYADFVKGRFTISRDAAKNTVNLQMSSLKPEDTAVYYCYARNIIVDYWGQGTQVTVSS | 2.02 nM | – | – | – | – | – | – | – | – | – | –
W3056-AP17R1-2H2-Z1-R1-14A1-FC(IgG4.SP) (Fc fusion, also called W3056 lead antibody (VHH-Fc(hIgG4) fusion); not shown: Fc of human IgG4 (hIgG4.S228P)) QVQLVESGGGVVQPGGSLRLSCAASDSIDSLVNMGWYRQAPGKQRELVALIATYITHYADFVKGRFTISRDNSKNTLYLQMNSLRAEDTAVYYCYARNIIVDYWGQGTLVTVSS | – | 28.7 nM | 0.00422 s⁻¹ | 147000 M⁻¹ s⁻¹ | 8.53 nM | 0.00177 s⁻¹ | 208000 M⁻¹ s⁻¹ | 3.45 nM | 0.000857 s⁻¹ | 248000 M⁻¹ s⁻¹ | 0.886 nM
